Test results from US11123413B2, “Carbapenemases for use with antibiotics for the protection of the intestinal microbiome” (priority 2015, dated 2021).
“Also recorded” adds a separate entry of the source.

Legend:
E. coli (ATCC 25922) = test: Antibiotic inactivation screening assay via E. coli growth (96 well plate, OD625); format: cell-based; settings: for activity against cephalosporins and carbapenems / antibiotic degradation profile compared with P3A: 10, 100 or 1000 ng/ml enzyme; for inhibition by beta-lactamase inhibitors: SAM, TZP, CAZ/AVI combinations; for degradation of carbapenems: meropenem, imipenem, ertapenem, doripenem
Description: To mimic the activity of the carbapenemase enzymes, P2A, NDM, and KPC in the gut in the presence of high antibiotic concentrations, a novel screening assay was performed using a 96 well plate format. The assay was performed by mixing 10, 100 or 1000 μg/ml of the antibiotics, AMP: ampicillin, SAM: ampicillin/sulbactam, PIP: pipercillin, TZP: pipercillin/taxobactam, CRO: ceftriaxone, CTX: cefotaxime, CFZ: cefozolin, CXM: cefuroxime, CFP: cefoperazone, FEP: cefepime, CAZ: ceftazidime, MEM: meropenem, IPM: imipenem, ERT: ertapenem, DOR: doripenem, ATM: aztreonam, CDR: cefdinir; LEX: cephalexin; and CAZ/AVI: […]/avibactam with purified P2A, NDM, KPC, and P3A at concentrations of 10, 100, or 1000 ng/ml in each well of a 96 well microtiter plate. E. coli (ATCC 25922) was added immediately after the addition of the beta-lactamase enzymes, and the plates were incubated overnight. Bacterial growth was quantified by measuring the absorbance at 625 nm (OD625) in a Spectramax 384 Plus plate reader. The analysis was performed twice for each antibiotic. The beta-lactamase activity was determined as positive or negative based on the appearance of bacterial growth in the individual wells. An OD625 of 1.0 or greater indicated maximal bacterial growth, therefore complete antibiotic degradation and beta-lactamase activity. […] FIGS. 21A, 21B, and 21C display the comparison of the four beta-lactamases, P3A (SYN-004), P2A, NDM, and KPC with all 16 antibiotics at beta-lactamase concentrations of 10, 100, or 1000 ng/ml. […]

[1] = CENTA chromogenic beta-lactamase biological activity assay (P3A standard curve); format: biochemical; settings: for stability of enzyme activity in cell lysates under differing storage conditions: fresh, frozen (−80° C.) or overnight at 4° C. lysate; for relative potency for CENTA degradation: midpoint of sigmoid curve, protein concentration vs OD405, P3A=1.0; for β-Lactamase: purified carbapenemase, P3A standard
Description: Biological activity of the carbapenemases, P2A, NDM, and KPC, present in the E. coli cell lysates were evaluated in a microtiter plate assay using CENTA as the chromogenic substrate (Bebrone et al. Antimicrob. Agents Chemother (2001) 45:1868-1871; van Berkel et al., J. Med. Chem. (2013) 56:6945-6953). Briefly, the assay was performed in a 50 mM NaH2PO4 buffer, pH 7.0 with supplementation of 100 uM ZnSO4, with CENTA (Calbiochem Cat #219475) at 50 ug/ml. The assays were run using purified P3A protein for the standard curve at protein concentrations of 0 ng/ml, 3 ng/ml, 6 ng/ml, 8 ng/ml, 10 ng/ml, 15 ng/ml, 20 ng/ml and 40 ng·ml. The plates were read at 405 nm after a 30 minute incubation using a microtiter plate reader. Cell lysates from the bacterial strains showing the highest protein expression levels by SDS-PAGE were evaluated for biological activity, which included P2A strains 5, 15, 20, 21, and 23, NDM strains 53, 58, 63, 68, and 69, and KPC strains 94, 96, 99, 100, 101, 102, 103, and 104 (Table 11). In addition, fresh lysate, frozen (−80° C.) lysate, or lysate stored overnight at 4° C. from strain P2A-21 were compared, and fresh and frozen (−80° C.) lysates from strain NDM-63 were compared to assess the stability of enzyme activity under differing storage conditions. All other lysates were kept frozen at −80° C. until assayed (Table 11).
Bacterial lysates were analyzed for protein expression by SDS-PAGE. Strong NDM expression was detected in all strains with good reproducibility between shake flasks (FIG. 4). Strong expression of P2A and KPC was also detected with good reproducibility between shake flasks (FIG. 5). In all cases, the vast majority of the protein was detected in the soluble fractions (FIG. 4 and FIG. 5). Biological activity was assessed in the cell lysates using the CENTA assay as described with P3A as the standard. […] The highest biological activity for NDM was from strain NDM-68.
Aliquots of bacteria were collected early in the fermentation cycle, 16 hours, for P2A and NDM, and 32 hours for KPC, prior to enzyme expression induction, and late in the cycle (48 hours) and subjected to SDS-PAGE (FIG. 6 and FIG. 7) and biological activity analyses (Table 15). […] Fermenters A, B, and C, reached high ODs. […] Bioreactor expression is achieved by changing of growth conditions, lowering phosphate conditions, and/or changing the promoter.
Frozen cell pellets retained from the fermenter studies, Fermenter A, P2A, Fermenter B, NDM, or from the shake flask studies, shake flask A, KPC, were lysed at 3×7000 psi in a Panda table top cell homogenizer. The lysate was spun at 45000 g for 1 hour, supernatants collected and pH adjusted to 5.5 with 1 M MES. The supernatants were spun at 45000 g for 30 minutes, to remove precipitated debris and filtered through a 0.45 um filter. The filtered supernatants were subjected to cation-exchange chromatography using an SP-sepharose column. NDM was subjected to an additional purification step using a hydrophobic column, phenyl sepharose. The fractions containing the peak levels of protein were concentrated and dialyzed against a 20 mM HEPES, pH 7.5, 150 mM NaCl buffer. The P2A and NDM samples were supplemented with 100 uM ZnSO4 in all steps of the purification process. Purified enzymes yields were calculated to be approximately 600 mg of protein per liter. Purified proteins were analyzed by SDS-PAGE (FIG. 8) and for biological activity (Table 16).
As different beta-lactamase enzymes display differential affinity and kinetics with diverse substrates, including antibiotics and the CENTA reagent, it was possible to determine the relative specific activities of P2A, NDM, and KPC compared to P3A for CENTA as a substrate now that purified proteins were available and therefore, protein concentrations were known. […]

[2] = Oral P2A and intravenous ampicillin in jejunal-fistulated dogs; format: in vivo, laboratory beagles; settings: peroral P2A 1 mg/kg liquid formulation, intravenous ampicillin 40 mg/kg
Description: The ability of P2A to degrade ampicillin in the dog intestinal tract was evaluated using laboratory beagles that had permanent jejunal fistulas. The fistulas allowed the repeated collection of jejunal chyme specimens from these animals. Dogs were treated with peroral P2A (1 mg/kg) in a liquid formulation (PBS buffer), and/or intravenous ampicillin (40 mg/kg). Serum samples were collected and serum ampicillin levels quantified. Jejunal chyme samples were collected and ampicillin and P2A levels were quantified. Ampicillin levels in serum and chyme were measured using a standard reverse phase HPLC method. P2A activity levels in chyme were determined spectrophotometrically using meropenem as a substrate. Meropenem hydrolysis was monitored at a wavelength of 297 nm.

[3] = fermenter cell lysate, 16 hr, Bioreactor A or B (standard phosphate)
[4] = fermenter cell lysate, 48 hr, Bioreactor A, B or D (standard phosphate)

Molecule | activity against cefepime and ceftazidime compared to NDM (E. coli (ATCC 25922)) | activity against cephalosporins and carbapenems (E. coli (ATCC 25922)) | antibiotic degradation profile compared with P3A (E. coli (ATCC 25922)) | inhibition by beta-lactamase inhibitors (E. coli (ATCC 25922)) | degradation of carbapenems (E. coli (ATCC 25922)) | Activity ([1]; bacterial cell lysate, shake flask culture, Flask A, CENTA, P3A as the standard) | Activity ([1]; bacterial cell lysate, shake flask culture, Flask B, CENTA, P3A as the standard) | Activity [1, 3] | Activity [1, 4] | stability of enzyme activity in cell lysates under differing storage conditions [1] | relative potency for CENTA degradation [1] | β-Lactamase ([1]; CENTA) | ampicillin in jejunal chyme [2] | effect on serum levels of ampicillin [2] | Activity ([1]; fermenter cell lysate, 16 hr, Bioreactor C (extra zinc and extra phosphate)) | Activity ([1]; fermenter cell lysate, 48 hr, Bioreactor C (extra zinc and extra phosphate))
P2A: broad spectrum carbapenemase, class B metallo-enzyme requiring zinc, SEQ ID NO: 37; P2A-21 = product of strain SYT-PP0602-21 (protein) ETGTISISQLNKNVWVHTELGYFNGEAVPSNGLVLNTSKGLVLVDSSWDNKLTKELIEMVEKKFQKRVTDVIITHAHADRIGGITALKERGIKAHSTALTAELAKNSGYEEPLGDLQTITSLKFGNTKVETFYPGKGHTEDNIVVWLPQYQILAGGCLVKSAEAKDLGNVADAYVNEWSTSIENVLKRYGNINSVVPGHGEVGDKGLLLHTLDLLK | activity was reduced against the cephalosporins, cefepime and ceftazidime | good activity against all carbapenems and most cephalosporins | broader degradation profile than P3A | resistant to inhibition by sulbactam, tazobactum, and avibactam | efficiently degraded meropenem, imipenem, ertapenem, and doripenem | 19.6 mg/L | 17.0 mg/L | 3.2 mg/L | 59.7 mg/L | No difference in activity | 0.12 | 317.7 mg/L | degraded ampicillin | does not reduce serum levels of ampicillin |  | 
NDM: New Delhi metallo-β-lactamase NDM-1; NDM-68 = product of strain STY-NP1602-68 (STII Δ35, N-terminal GQQMETG) (protein) GQQMETGDQRFGDLVFRQLAPNVWQHTSYLDMPGFGAVASNGLIVRDGGRVLVVDTAWTDDQTAQILNWIKQEINLPVALAVVTHAHQDKMGGMDALHAAGIATYANALSNQLAPQEGMVAAQHSLTFAANGWVEPATAPNFGPLKVFYPGPGHTSDNITVGIDGTDIAFGGCLIKDSKAKSLGNLGDADTEHYAASARAFGAAFPKASMIVMSHSAPDSRAAITHTARMADKLR |  | efficiently degraded all tested cephalosporins and carbapenems | broader degradation profile than P3A | resistant to inhibition by sulbactam, tazobactum, and avibactam; also recorded: least affected by sulbactam | efficiently degraded meropenem, imipenem, ertapenem, and doripenem |  |  | 6.6 mg/L | 520.0 mg/L | No difference in activity | 0.71 | 1703.8 mg/L |  |  | 5.8 mg/L | 14.1 mg/L
